This is an account of results in article PMC10705946, “^225Ac-iPSMA-RGD for Alpha-Therapy Dual Targeting of Stromal/Tumor Cell PSMA and Integrins” (International Journal of Molecular Sciences, 2023).

Each structure is given as a SMILES string.

For data set [1] the following is noted: HCT116 tumor-bearing mice, 11 days after administration (37 kBq). Here is the method: All animal procedures followed the Ethical Regulations for the Handling of Laboratory Animals (NOM-062-ZOO-1999) and the requirements of the Institutional Animal Care and Use Committee, according to an approved protocol (CICUAL-08-2018-2021). […] Mice were injected with 3.7 kBq (50 µL) of ^225Ac-iPSMA-RGD and necropsied at 1, 3, 24, 72, and 96 h (n = 3). The liver, heart, kidney, pancreas, lung, spleen, small intestine, and stomach were measured using the Francium-221 photopeak (218 keV) in a hyperpure germanium gamma spectrometer (Ortec, Atlanta, GA, USA). Results were recorded as a percentage of injected dose (%ID) per organ. Blood and bone samples were also dissected, and the associated activity was recorded as %ID/g. A second group of mice was inoculated subcutaneously with 1 × 10^6 HCT116 cells. […] Animals were necropsied on day 11 post-treatment, as described above. Radioisotopic/X-ray ex vivo images of the source organs and tumor were obtained in a preclinical imaging system (Bruker, XTREME, Billerica, MA, USA).

The subject of data set [2] is HCT116 tumor and lung, spleen, kidney, liver tissues. Description: Histology (H&E) and immunohistochemistry of organs and tumor. It counts as in vivo, mice. Here is the method: Formalin-fixed paraffin-embedded samples (lung, spleen, kidney and tumor), were sectioned at 4 µm sections and stained with H&E. For immunohistochemical reactions, samples were deparaffinized, hydrated, and subjected to an antigen retrieval protocol (slides were immersed in a prewarmed Citrate-EDTA buffer solution (10mM citric acid, 2 mM EDTA, 0.05% Tween 20, pH 7.0) at 100 °C for 30 min. Endogenous peroxidase was then blocked with 0.9% hydrogen peroxide (H2O2) solution for 5 min. To prevent non-specific binding, the samples were incubated with 5% bovine serum albumin (BSA) for 10 min. After subsequent washes with phosphate-buffered saline (PBS)-Tween (0.05%), samples were incubated overnight at 4 °C with primary monoclonal rabbit anti- Ki-67 [SP6] antibody (Biocare Medi-cal-CRM 325A, Pacheco, CA, USA). After subsequent washing, samples were incubated with secondary HRP donkey anti-rabbit IgG (minimal x-reactivity) antibody (Biolegend-406401 San Diego, CA) for 1 h. For mitochondrial permeabilization processes estimation, the samples were incubated overnight at 4 °C with unconjugated Bcl-2 (C2) sc-7882 antibody (Santa Cruz Biotechnology Inc., Dallas, TX, USA). As a secondary antibody, we used m-IgG1 BP-HRP: sc-525408 (Santa Cruz Biotechnology Inc., Dallas, TX, USA). Samples were incubated for 1 h. For apoptotic cell estimation, unconjugated active (cleaved) Caspase-3 Monoclonal Antibody bsm-33199M (Bioss Inc., Woburn, MA, USA) was used. The samples were incubated overnight at 4 °C, and the secondary antibody was goat Anti-Mouse IgG (Fc specific)–peroxidase antibody A2554 (Millipore-Sigma Aldrich, Merck KGaA, Darmstadt, Germany). Samples were incubated for 1 h. Both primary and secondary antibodies were used at a 1:100 dilution. To visualize the immunoreactions, the samples were washed with distilled water and Tris-buffered saline-Tween (TBST) for 5 min, and the diaminobenzidine (DAB) (Dako Liquid DAB+ Substrate Chromogen System K3468) was applied for 60 s. Excess chromogen was removed by washing with PBS-Tween. Finally, the slides were counterstained with Harris hematoxylin, dehydrated, and coverslipped. As a negative control, immunoreactions were performed using the same method with PBS instead of the primary antibody. Images were captured using a Lumenera INFINITY X-32 MP camera in a Carl Zeiss Axiostar microscope.

The next data set deals with HCT116 tumors. The data set is described as follows: Tumor size progression after treatment. The note with it: 37 kBq. It is filed as in vivo, mice.
A short description of data set [3]: Absorbed radiation dose estimation (N and dose, OLINDA 2.0). It is filed as in vivo, athymic mice. From the text:
The %ID/organ data were used to calculate the biokinetic models. […] The ^225Ac decay chain was considered for dosimetry. […] DF (dose factor, mGy/MBq) values were obtained from OLINDA 2.0 code (Dose, Gy = NxDF).

The conditions of data set [4]: mice, day 11 after treatment.
Data set [5] relates to HCT116 colorectal cancer cells. The data set is described as follows: Cellular uptake and internalization, with blocked receptor assay. It counts as cell-based, human. Here is the method: The ^225Ac-iPSMA-RGD uptake was performed on HCT116, C6 and PC3 cell lines, which were selected based on their variable PSMA and RGD expression according to previous research by our group and others. Each cell line was diluted to 1 × 10^6 cells with 1 mL of PBS in tubes and incubated at 37 °C with 30 μL of ^225Ac-iPSMA-RGD (20 μL, 70 Bq) for 0.5 h, 1 h and 3 h (n = 6). At each time point, the tubes were centrifuged at 3000 rpm for 5 min and rinsed twice with PBS. The measured activity in a NaI(Tl) well-type detector in the pellet, represents the uptake and internalization. To remove the ^225Ac-iPSMA-RGD at the cell membrane level, 1 mL of 0.2 M CH3COOH /0.5 M NaCl was added and the pellet was resuspended. The tubes were then centrifuged and washed with PBS twice (this activity is considered internalization).

Another data set concerns HCT116 cells. Description: Apoptosis, Muse Caspase-3/7 kit with 7-AAD, flow cytometry. It counts as cell-based, human. Here is the method:
Apoptosis in the colorectal HCT116 cancer cell line was evaluated in triplicate, using the Muse^TM Caspase-3/7 kit, Cat No. MCH100108 (Merck Millipore, Burlington, MA, USA). Briefly, cells were seeded in cell culture flasks at a density of 1 × 10^6 cells and exposed to 4.5 Bq of (2 Gy) and 9.0 Bq […] (4 Gy) of ^225Ac-iPSMA-RGD. Untreated cells were used as the control group and the positive control was prepared through nutrient starvation for 24 h. First, cells were trypsinized and suspended in 50 µL of 1X Assay Buffer BA (1 × 10^6 cells/mL). Then, 5 µL of Caspase-3/7 reagent working solution was added at 37 °C with 5% of CO2 for 30 min. After incubation, 150 µL of Caspase 7-AAD working solution was added to each tube. Finally, tubes were incubated for 5 min, protected from light, and fluorescent intensities were examined by flow cytometry using a Muse Cell Analyzer (Merck Millipore, Burlington, MA, USA) and were conducted in triplicate).

Where [6] appears, read: HCT116 tumor, immunohistochemistry.

Description for HCT116 tumors: A second group of mice was inoculated subcutaneously with 1 × 10^6 HCT116 cells. After the mice developed a tumor (0.220 ± 0.030 g), they were treated with 3.7 kBq (50 µL) of ^225Ac-iPSMA-RGD (n = 3) via tail vein injection. Animals were necropsied on day 11 post-treatment, as described above.

As for `N=C(N)NCCC[C@@H]1NC(=O)[C@H](CCCCNC(=O)CCCN2C(=O)CC(SC[C@H](NC(=O)c3ccc(NNC(=S)Nc4ccc(CC5CN(CC(=O)O)CCN(CC(=O)O)CCN(CC(=O)O)CCN(CC(=O)O)CCN(CC(=O)O)CCN5CC(=O)O)cc4)nc3)C(=O)N[C@@H](Cc3ccc4ccccc4c3)C(=O)NCCCC[C@H](NC(=O)N[C@@H](CCC(=O)O)C(=O)O)C(=O)O)C2=O)NC(=O)[C@@H](Cc2ccccc2)NC(=O)[C@H](CC(=O)O)NC(=O)CNC1=O` (some centres unmarked) [^225Ac-iPSMA-RGD, ^225Ac-HEHA-HYNIC-iPSMA-RGD, metal not drawn], the “Tissue retention in ex-vivo radioisotopic imaging” value in data set [1] is reported as “the tissue accumulating the radiotracer for the longest time is the tumor”. Besides, in data set [2] (setting [6]), the “Bcl-2 expression in tumor” value is listed as “inhibited the Bcl-2 expression”, the “Caspase-3 activity in tumor” value was “upregulated the Caspase-3 activity” and the “Tumor proliferative activity (Ki67 expression) vs untreated mice” value was “significantly lower”. Also, in data set [2] (treated mice vs untreated mice), the “Histological (H&E) evaluation of lung, spleen, kidney and liver” value is given as “no pathologic changes”. Moreover, the “Tumor size progression compared to control group (untreated mice)” value with HCT116 tumors (HCT116 tumor-bearing mice) is listed as “significantly lower (p < 0.05)”. Also, the “Tumor size compared to ^225Ac-RGD and ^225Ac-PSMA groups” value with HCT116 tumors (eleven days after administration) is given as “significantly lower (p < 0.05)”. In data set [3] (athymic mice), the “Radiation Absorbed Dose, Kidney” value is 17.63 Gy/37 kBq and the “Radiation Absorbed Dose, Liver” value is 15.85 Gy/37 kBq. Further, the “Radiation Absorbed Dose, Tumor” value in data set [3] (athymic mice, HCT116 tumor) is on record as 237.07 Gy/37 kBq. Also, the “Total nuclear transformations N=∫t=0t=11dAtdt, Tumor” value in data set [3] (athymic mice, HCT116 tumor, t = 0 to 11 days) was 7.83 MBq·h. In data set [3] (athymic mice, t = 0 to 11 days), the “Total nuclear transformations N=∫t=0t=11dAtdt, Kidney” value is 3.52 MBq·h and the “Total nuclear transformations N=∫t=0t=11dAtdt, Liver” value is 5.23 MBq·h. Moreover, in data set [3] (mice, from Table 1), the “Tumor-to-kidney radiation dose ratio” value was “thirteen” and the “Tumor-to-liver radiation dose ratio” value is reported as “fifteen”. In addition, in data set [4], the “Renal or hepatic function damage” value is reported as “no damage to renal or hepatic function was detected”, the Serum alanine aminotransferase was found to be 70 ± 8 IU/L, the Serum aspartate aminotransferase is 141 ± 19 IU/L and the Serum creatinine turned out to be 0.215 ± 0.071 mg/dL. Also, in data set [5] (HCT116 cells, blocking with unlabeled 1 mM iPSMA, RGD and iPSMA-RGD), the “Uptake and internalization, blocked vs unblocked cell receptors” value is “statistically significant difference between blocked and unblocked cell receptors”. For the same molecule, the “Radiopharmaceutical uptake in colorectal cancer cells compared to C6 and PC3 cells” value in data set [5] (HCT116 vs C6 and PC3 cells) is recorded as “significantly higher”. In the data set on HCT116 cells (HCT116, 2 Gy), the “Increase in apoptotic/dead cells” value is “approximately 24.6%”. Besides, the “Increase in apoptotic/dead cells” value with HCT116 cells (HCT116, 4 Gy) is on record as approximately 31.2%.
